The record followed here is patent publication US20120135923A1 (IPSEN PHARMA S A S, published 2012).

Bridge positions count the residues as written; N and C are the ends. Square brackets hold non-standard residues; d marks the D form. Ends that are not written are not given here. 2Nal = N[C@@H](Cc1ccc2ccccc2c1)C(=O)O; Bta = N[C@@H](Cc1csc2ccccc12)C(=O)O; Pen = CC(C)(S)[C@H](N)C(=O)O; Nle = CCCC[C@H](N)C(=O)O; Ava = NCCCCC(=O)O; GABA = NCCCC(=O)O

B1: Ac-Nle-c(Cys-D-Leu-His-D-Phe-Arg-Trp-Cys)-NH2 (peptide)
peptide: Ac-[Nle]C[dL]H[dF]RWC-NH2
modifications: disulfide 2-8
SMILES: CCCC[C@H](NC(C)=O)C(=O)N[C@H]1CSSC[C@@H](C(N)=O)NC(=O)[C@H](Cc2c[nH]c3ccccc23)NC(=O)[C@H](CCCNC(=N)N)NC(=O)[C@@H](Cc2ccccc2)NC(=O)[C@H](Cc2c[nH]cn2)NC(=O)[C@@H](CC(C)C)NC1=O
B2: Ac-Nle-c(Asp-D-Ala-His-D-Phe-Arg-Bal-Lys)-NH2 (peptide)
peptide: Ac-[Nle]D[dA]H[dF]R[Bta]K-NH2
modifications: lactam 2-8
SMILES: CCCC[C@H](NC(C)=O)C(=O)N[C@H]1CC(=O)NCCCC[C@@H](C(N)=O)NC(=O)[C@H](Cc2csc3ccccc23)NC(=O)[C@H](CCCNC(=N)N)NC(=O)[C@@H](Cc2ccccc2)NC(=O)[C@H](Cc2c[nH]cn2)NC(=O)[C@@H](C)NC1=O
B3: Nle-c(Cys-His-D-Phe-Arg-Trp-Apn-Cys)-NH2 (peptide)
peptide: [Nle]CH[dF]RW[Ava]C-NH2
modifications: disulfide 2-8; N-terminus assumed
SMILES: CCCC[C@H](N)C(=O)N[C@H]1CSSC[C@@H](C(N)=O)NC(=O)CCCCNC(=O)[C@H](Cc2c[nH]c3ccccc23)NC(=O)[C@H](CCCNC(=N)N)NC(=O)[C@@H](Cc2ccccc2)NC(=O)[C@H](Cc2c[nH]cn2)NC1=O

The target of one assay is T1, hMC1-R (human, UniProt Q01726 1-317).
T1 construct: whole, on cells; Assayed as membranes of CHO-K1 cells expressing the receptor; also called hMC-R receptor subtype 1; melanocyte-specific receptor (MC1-R)
T1 sequence (Q01726 whole entry): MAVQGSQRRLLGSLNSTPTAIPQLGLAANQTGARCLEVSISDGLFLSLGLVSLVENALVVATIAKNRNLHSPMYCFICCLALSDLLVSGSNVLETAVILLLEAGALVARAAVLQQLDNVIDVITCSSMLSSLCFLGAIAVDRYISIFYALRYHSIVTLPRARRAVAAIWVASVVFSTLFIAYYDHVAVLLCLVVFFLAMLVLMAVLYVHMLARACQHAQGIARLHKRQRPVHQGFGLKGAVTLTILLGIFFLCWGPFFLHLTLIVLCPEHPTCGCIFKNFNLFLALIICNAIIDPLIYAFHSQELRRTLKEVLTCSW
Put plainly: ratio Ki hMC1-R / Ki hMC4-R, same assay. The procedure: Cellular membranes used for the in vitro receptor binding assays were obtained from transgenic CHO-K1 cells stably expressing hMC-R receptor subtypes 1, 3, 4 or 5. […] The pellets were resuspended in the same buffer and centrifuged at 50,000 g for 10 minutes at approximately 4° C. The washed pellets containing the cellular membranes were stored at approximately −80° C.
Competitive inhibition of [¹²⁵I](Tyr²)-(Nle⁴-D-Phe⁷)α-MSH ([¹²⁵I]-NDP-α-MSH, Amersham Biosciences®) binding was carried out in polypropylene 96 well plates. Cell membranes (1-10 μg protein/well) prepared as described above were incubated in 50 mM Tris-HCl at pH 7.4 containing 0.2% bovine serum albumin (BSA), 5 mM MgCl₂, 1 mM CaCl₂ and 0.1 mg/mL bacitracin, with increasing concentrations of the test compound and 0.1-0.3 nM […] for approximately 90-120 minutes at approximately 37° C. Bound [¹²⁵I]-NDP-α-MSH ligand was separated from free [¹²⁵I]-NDP-α-MSH by filtration through GF/C glass fiber filter plates (Unifilter®; Packard) presoaked with 0.1% (w/v) polyethylenimine (PEI), using a Packard Filtermate® harvester. Filters were washed three times with 50 mM Tris-HCl at pH 7.4 at a temperature of approximately 0-4° C. and then assayed for radioactivity using a Packard Topcount® scintillation counter. Binding data were analyzed by computer-assisted non-linear regression analysis (XL fit; IDBS).
As to Ac-[Nle]CH[dF]RW[GABA][Pen]-NH2 (disulfide 2-8) [Ac-Nle-c(Cys-His-D-Phe-Arg-Trp-Gaba-Pen)-NH2], the “Ki hMC1-R/MC4-R” value came out at 0.3.

As for Ac-[Nle][Pen]H[dF]RW[GABA][Pen]-NH2 (disulfide 2-8) [Ac-Nle-c(Pen-His-D-Phe-Arg-Trp-Gaba-Pen)-NH2], the “Ki hMC1-R/MC4-R” value came to 0.21.

For B1, the “Ki hMC1-R/MC4-R” value was 0.39.

For Ac-[2Nal]CH[dF]RW[GABA]C-NH2 (disulfide 2-8) [Ac-2-Nal-c(Cys-His-D-Phe-Arg-Trp-Gaba-Cys)-NH2], the “Ki hMC1-R/MC4-R” value was determined as 0.19.

With B2, the “Ki hMC1-R/MC4-R” value worked out at 0.08.

On to B3, for which the “Ki hMC1-R/MC4-R” value amounted to 0.1.

Take [Nle]CH[dF]RW[GABA]C-NH2 (disulfide 2-8) [Nle-c(Cys-His-D-Phe-Arg-Trp-Gaba-Cys)-NH2]: the “Ki hMC1-R/MC4-R” value amounted to 0.1.

With Ac-[Nle]CHFR[dW][GABA]C-NH2 (disulfide 2-8, Phe 4 is the L form here) [Ac-Nle-c(Cys-His-Phe-Arg-D-Trp-Gaba-Cys)-NH2], the “Ki hMC1-R/MC4-R” value is 0.04.

For the next assay, the target named is T1, hMC1-R. Put plainly: competition with [125I]-NDP-α-MSH, CHO-K1 membranes.
The Ki is a measure of affinity in units of concentration, obtained from inhibition or displacement. Consider Ac-[Nle]CH[dF]RW[GABA][Pen]-NH2 (disulfide 2-8) [Ac-Nle-c(Cys-His-D-Phe-Arg-Trp-Gaba-Pen)-NH2], for which the affinity corresponds to a Ki of 0.12 nM.

Ac-[Nle][Pen]H[dF]RW[GABA][Pen]-NH2 (disulfide 2-8) [Ac-Nle-c(Pen-His-D-Phe-Arg-Trp-Gaba-Pen)-NH2] had a Ki of 0.744 nM.

As for B1, the Ki amounted to 1.6 nM.

As to Ac-[2Nal]CH[dF]RW[GABA]C-NH2 (disulfide 2-8) [Ac-2-Nal-c(Cys-His-D-Phe-Arg-Trp-Gaba-Cys)-NH2], the inhibition constant (Ki) stood at 0.56 nM.

In the case of B2, the affinity, expressed as Ki, was 4.12 nM.

B3 gave an inhibition constant (Ki) of 0.07 nM.

Consider [Nle]CH[dF]RW[GABA]C-NH2 (disulfide 2-8) [Nle-c(Cys-His-D-Phe-Arg-Trp-Gaba-Cys)-NH2], for which the affinity, expressed as Ki, was 0.05 nM.

Ac-[Nle]CHFR[dW][GABA]C-NH2 (disulfide 2-8, Phe 4 is the L form here) [Ac-Nle-c(Cys-His-Phe-Arg-D-Trp-Gaba-Cys)-NH2] returned an inhibition constant Ki of 5.2 nM.

In a further assay the target is T2, hMC5-R (human, UniProt P33032 1-325).
T2 construct: whole, on cells; Assayed as membranes of CHO-K1 cells expressing the receptor; also called hMC-R receptor subtype 5; melanocortin-5 receptor (MC5-R)
T2 sequence (P33032 whole entry): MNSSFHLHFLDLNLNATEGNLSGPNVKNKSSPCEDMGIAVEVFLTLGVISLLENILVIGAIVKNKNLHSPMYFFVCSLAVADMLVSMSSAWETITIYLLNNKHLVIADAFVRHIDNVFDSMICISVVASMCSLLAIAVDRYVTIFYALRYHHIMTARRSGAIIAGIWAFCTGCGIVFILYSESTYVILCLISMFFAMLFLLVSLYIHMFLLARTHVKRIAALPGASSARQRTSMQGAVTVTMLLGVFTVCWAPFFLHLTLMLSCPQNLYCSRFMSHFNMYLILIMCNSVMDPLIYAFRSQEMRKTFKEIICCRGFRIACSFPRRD
The assay is described as above.
Consider Ac-[Nle]CH[dF]RW[GABA][Pen]-NH2 (disulfide 2-8) [Ac-Nle-c(Cys-His-D-Phe-Arg-Trp-Gaba-Pen)-NH2], for which the Ki was 0.42 nM.

Regarding Ac-[Nle][Pen]H[dF]RW[GABA][Pen]-NH2 (disulfide 2-8) [Ac-Nle-c(Pen-His-D-Phe-Arg-Trp-Gaba-Pen)-NH2], the Ki was 2.69 nM.

Molecule B1 gave a Ki of 5.57 nM.

In the case of Ac-[2Nal]CH[dF]RW[GABA]C-NH2 (disulfide 2-8) [Ac-2-Nal-c(Cys-His-D-Phe-Arg-Trp-Gaba-Cys)-NH2], affinity was put at a Ki of 2.73 nM.

B2 came in with an inhibition constant Ki of 4300 nM.

B3 registered a Ki of 8.8 nM.

As to [Nle]CH[dF]RW[GABA]C-NH2 (disulfide 2-8) [Nle-c(Cys-His-D-Phe-Arg-Trp-Gaba-Cys)-NH2], the inhibition constant (Ki) worked out at 0.2 nM.

Take Ac-[Nle]CHFR[dW][GABA]C-NH2 (disulfide 2-8, Phe 4 is the L form here) [Ac-Nle-c(Cys-His-Phe-Arg-D-Trp-Gaba-Cys)-NH2]: the inhibition constant (Ki) amounted to 20.3 nM.

The next assay deals with T3, hMC3-R (human, UniProt P41968 1-323).
T3 construct: whole, on cells; Assayed as membranes of CHO-K1 cells expressing the receptor; also called hMC-R receptor subtype 3; melacortin-3 (MC3-R)
T3 sequence (P41968 whole entry): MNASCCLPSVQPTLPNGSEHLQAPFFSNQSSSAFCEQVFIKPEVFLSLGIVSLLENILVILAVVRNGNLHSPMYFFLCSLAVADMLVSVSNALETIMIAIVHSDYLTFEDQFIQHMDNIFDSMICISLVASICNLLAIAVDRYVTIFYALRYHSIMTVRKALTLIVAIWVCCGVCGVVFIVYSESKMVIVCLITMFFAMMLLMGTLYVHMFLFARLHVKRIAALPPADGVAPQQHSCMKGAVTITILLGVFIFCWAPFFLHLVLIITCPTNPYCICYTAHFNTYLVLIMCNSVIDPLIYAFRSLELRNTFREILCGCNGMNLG
Described as above.
For the molecule Ac-[Nle]CH[dF]RW[GABA][Pen]-NH2 (disulfide 2-8) [Ac-Nle-c(Cys-His-D-Phe-Arg-Trp-Gaba-Pen)-NH2], the Ki was found to be 10 nM.

On to Ac-[Nle][Pen]H[dF]RW[GABA][Pen]-NH2 (disulfide 2-8) [Ac-Nle-c(Pen-His-D-Phe-Arg-Trp-Gaba-Pen)-NH2], for which the Ki was found to be 178 nM.

Regarding B1, the affinity corresponds to a Ki of 6.82 nM.

The molecule Ac-[2Nal]CH[dF]RW[GABA]C-NH2 (disulfide 2-8) [Ac-2-Nal-c(Cys-His-D-Phe-Arg-Trp-Gaba-Cys)-NH2] gave a Ki of 39.2 nM.

In turn, B2 had a Ki of 445 nM.

B3 showed a Ki of 4.1 nM.

[Nle]CH[dF]RW[GABA]C-NH2 (disulfide 2-8) [Nle-c(Cys-His-D-Phe-Arg-Trp-Gaba-Cys)-NH2] had a Ki of 1.3 nM.

The molecule Ac-[Nle]CHFR[dW][GABA]C-NH2 (disulfide 2-8, Phe 4 is the L form here) [Ac-Nle-c(Cys-His-Phe-Arg-D-Trp-Gaba-Cys)-NH2] showed a Ki of 150 nM.

In the next assay the target is T4, hMC4-R (human, UniProt P32245 1-332).
T4 construct: whole, on cells; Assayed as membranes of CHO-K1 cells expressing the receptor; also called hMC-R receptor subtype 4; melanocortin-4 (MC4-R)
T4 sequence (P32245 whole entry): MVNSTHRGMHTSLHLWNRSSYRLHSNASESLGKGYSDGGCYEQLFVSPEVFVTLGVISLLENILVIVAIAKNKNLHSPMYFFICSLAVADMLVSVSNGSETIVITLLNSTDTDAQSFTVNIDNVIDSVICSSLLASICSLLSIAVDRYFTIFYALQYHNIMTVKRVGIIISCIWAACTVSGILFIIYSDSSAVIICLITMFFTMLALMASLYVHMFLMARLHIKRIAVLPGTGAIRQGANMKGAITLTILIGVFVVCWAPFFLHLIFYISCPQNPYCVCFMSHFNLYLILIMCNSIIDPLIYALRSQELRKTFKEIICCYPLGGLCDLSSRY
The assay is described as above.
With Ac-[Nle]CH[dF]RW[GABA][Pen]-NH2 (disulfide 2-8) [Ac-Nle-c(Cys-His-D-Phe-Arg-Trp-Gaba-Pen)-NH2], the Ki worked out at 0.43 nM.

Ac-[Nle][Pen]H[dF]RW[GABA][Pen]-NH2 (disulfide 2-8) [Ac-Nle-c(Pen-His-D-Phe-Arg-Trp-Gaba-Pen)-NH2] registered a Ki of 3.51 nM.

In the case of B1, the affinity, expressed as Ki, was 4.13 nM.

As for Ac-[2Nal]CH[dF]RW[GABA]C-NH2 (disulfide 2-8) [Ac-2-Nal-c(Cys-His-D-Phe-Arg-Trp-Gaba-Cys)-NH2], the affinity, expressed as Ki, was 2.94 nM.

Molecule B2 came in with a Ki of 50.6 nM.

B3 showed a Ki of 0.85 nM.

Take [Nle]CH[dF]RW[GABA]C-NH2 (disulfide 2-8) [Nle-c(Cys-His-D-Phe-Arg-Trp-Gaba-Cys)-NH2]: the inhibition constant Ki stood at 0.47 nM.

Ac-[Nle]CHFR[dW][GABA]C-NH2 (disulfide 2-8, Phe 4 is the L form here) [Ac-Nle-c(Cys-His-Phe-Arg-D-Trp-Gaba-Cys)-NH2] had an inhibition constant (Ki) of 138 nM.
